Assay results as given in the supplement of paper PMC9112550, “Optimization of the antimicrobial peptide Bac7 by deep mutational scanning” (BMC Biology, 2022).

These sequences were tested on Escherichia coli TOP10 (assay: shrunken log2 fold change of peptide-encoding DNA abundance (4.5 h post-induction vs induction); higher = less antimicrobial activity (less host growth inhibition)). Settings: time post-induction: 4.5 h; library: site-saturation at positions 5, 18, 19, 20.
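Note: peptides expressed intracellularly from a pBAD plasmid library in pooled LB shake-flask culture, induced with 0.3% L-arabinose, DNA abundance read by NGS, three biological replicates, DESeq2 with apeglm shrinkage.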

Sequence | shrunken log2 fold change
RRIRRRPPRLPRPRPRPRSAPRP | 0.532
RRIRYRPPRLPRPRPRPGDEPRP | -0.0823
RRIRPRPPRLPRPRPRPCNAPRP | -0.179
RRIRSRPPRLPRPRPRPLKNPRP | -0.347
RRIRYRPPRLPRPRPRPFDLPRP | -0.967
RRIRERPPRLPRPRPRPLYWPRP | -0.383
RRIRGRPPRLPRPRPRPTPQPRP | 1.05
RRIRRRPPRLPRPRPRPQGKPRP | 0.0379
RRIRLRPPRLPRPRPRPDANPRP | 0.0586
RRIRMRPPRLPRPRPRPSSDPRP | 0.111
RRIRERPPRLPRPRPRPCMRPRP | -0.0898
RRIRERPPRLPRPRPRPIYNPRP | -0.85
RRIRFRPPRLPRPRPRPLQWPRP | -0.0201
RRIRYRPPRLPRPRPRPGPVPRP | -0.16
RRIRGRPPRLPRPRPRPLWKPRP | 0.819
RRIRLRPPRLPRPRPRPNERPRP | -0.0191
RRIRKRPPRLPRPRPRPEIDPRP | 2.84
RRIRERPPRLPRPRPRPHNYPRP | -0.612
RRIRIRPPRLPRPRPRPFRHPRP | -0.219
RRIRRRPPRLPRPRPRPNVIPRP | -0.265
RRIRSRPPRLPRPRPRPHIEPRP | -0.295
RRIRSRPPRLPRPRPRPKRQPRP | 0.000345
RRIRLRPPRLPRPRPRPDMSPRP | -0.428
RRIRDRPPRLPRPRPRPNFKPRP | -0.0287
RRIRSRPPRLPRPRPRPINAPRP | -0.377

Sequence | shrunken log2 fold change
RRIRRRPPRLPRPRPRPEFYPRP | 0.413
RRIRGRPPRLPRPRPRPFGKPRP | -0.144
RRIRYRPPRLPRPRPRPCKHPRP | -0.0625
RRIRPRPPRLPRPRPRPARVPRP | 0.295
RRIRVRPPRLPRPRPRPAYRPRP | -0.0828
RRIRIRPPRLPRPRPRPCWAPRP | -0.283
RRIRARPPRLPRPRPRPNESPRP | 0.102
RRIRPRPPRLPRPRPRPGPEPRP | 0.213
RRIRIRPPRLPRPRPRPGSLPRP | -0.475
RRIRDRPPRLPRPRPRPWNMPRP | -0.508
RRIRPRPPRLPRPRPRPGMIPRP | 0.0107
RRIRMRPPRLPRPRPRPHITPRP | -0.374
RRIRFRPPRLPRPRPRPDMEPRP | -0.16
RRIRERPPRLPRPRPRPMVGPRP | 0.17
RRIRRRPPRLPRPRPRPWRCPRP | 0.175
RRIRCRPPRLPRPRPRPDQLPRP | 0.101
RRIRGRPPRLPRPRPRPPYCPRP | 0.204
RRIRHRPPRLPRPRPRPWICPRP | -0.0191
RRIRQRPPRLPRPRPRPRGRPRP | 0.256
RRIRVRPPRLPRPRPRPRFTPRP | -0.0651
RRIRNRPPRLPRPRPRPYLPPRP | -0.245
RRIRFRPPRLPRPRPRPNNSPRP | -0.685
RRIRFRPPRLPRPRPRPGRGPRP | 0.607
RRIRVRPPRLPRPRPRPRPSPRP | 0.382
RRIRERPPRLPRPRPRPKNDPRP | -0.467

Sequence | shrunken log2 fold change
RRIRGRPPRLPRPRPRPGTAPRP | 2.14
RRIRSRPPRLPRPRPRPGGHPRP | 0.161
RRIRGRPPRLPRPRPRPPVIPRP | -0.0488
RRIRNRPPRLPRPRPRPTKPPRP | 0.24
RRIRERPPRLPRPRPRPDGWPRP | 0.0267
RRIRARPPRLPRPRPRPFQIPRP | -0.0627
RRIRARPPRLPRPRPRPSDQPRP | -0.0615
RRIRLRPPRLPRPRPRPIPKPRP | -0.0415
RRIRYRPPRLPRPRPRPVIQPRP | -0.607
RRIRIRPPRLPRPRPRPIQFPRP | -0.048
RRIRFRPPRLPRPRPRPRYQPRP | -0.738
RRIRERPPRLPRPRPRPMIYPRP | -0.12
RRIRLRPPRLPRPRPRPRPSPRP | 0.435
RRIRGRPPRLPRPRPRPECPPRP | 0.475
RRIRDRPPRLPRPRPRPSASPRP | 0.259
RRIRFRPPRLPRPRPRPMAPPRP | 0.114
RRIRARPPRLPRPRPRPLWDPRP | 0.022
RRIRQRPPRLPRPRPRPRSVPRP | 0.235
RRIRYRPPRLPRPRPRPWCIPRP | 0.0404
RRIRVRPPRLPRPRPRPWDRPRP | 0.0372
RRIRARPPRLPRPRPRPDHQPRP | -0.0683
RRIRHRPPRLPRPRPRPDMWPRP | -0.175
RRIRVRPPRLPRPRPRPHVWPRP | -0.145
RRIRNRPPRLPRPRPRPSSAPRP | -0.0956
RRIRIRPPRLPRPRPRPPFWPRP | 0.288
